# Results reported in patent EP4755449A2 (CHUGAI SEIYAKU KABUSHIKI KAISHA, dated 2026).
# T1: human Fc gamma RIIb extracellular domain, His-tagged (human, UniProt P31994 43-217)
# T1 construct: also called FcgRIIb
# T1 sequence: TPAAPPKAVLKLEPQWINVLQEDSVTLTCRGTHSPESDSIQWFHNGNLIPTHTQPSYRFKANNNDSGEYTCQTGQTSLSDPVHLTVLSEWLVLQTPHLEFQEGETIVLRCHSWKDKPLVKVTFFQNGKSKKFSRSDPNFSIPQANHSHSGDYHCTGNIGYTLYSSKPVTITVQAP
# T2: cyno Fc gamma RIIb extracellular domain, His-tagged (cynomolgus monkey)
# T2 construct: also called cynoFcgRIIb
# T2 chain: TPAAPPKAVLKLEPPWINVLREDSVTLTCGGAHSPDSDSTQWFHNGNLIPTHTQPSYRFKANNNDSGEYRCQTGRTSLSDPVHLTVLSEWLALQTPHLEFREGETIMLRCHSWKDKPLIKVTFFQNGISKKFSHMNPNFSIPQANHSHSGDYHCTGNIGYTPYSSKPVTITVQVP
# How the values were obtained:
# [1] = target: T1, human Fc gamma RIIb extracellular …; assay: SPR 25C
# [2] = target: T2, cyno Fc gamma RIIb extracellular …; assay: SPR 25C
Binder,binding result [1],binding result [2],KD fold vs SG1 [1]
"M103205H795-SG1 K334Y/M103202L889-SK1 (antibody, human IgG1, kappa, copies: 2 + 2) heavy: not shown light: DIVMTQSPATLSLSPGERATLSCTSSQSVYHANWLSWFQQKPGQPPKLLIYWASTLAYGVPSRFSGSGSGTDFTLTISSLQPEDAATYYCAGGYGGGRYAFGQGTKVEIKRTVAAPSVFIFPPSDEQLKSGTASVVCLLNNFYPREAKVQWKVDNALQSGNSQESVTEQDSKDSTYSLSSTLTLSKADYEKHKVYACEVTHQGLSSPVTKSFNRGEC",binds,binds,–
"MS103205H795-MY351/M103202L889-SK1 (antibody, also called MS1032LO06-MY351; copies: 2 + 2) heavy: QVTLKESGPVLVKPTETLTLTCTVSGIDLSHDDISWVRQAPGKGLEWVGIISYAGSTYYASWAKGRLTISKDTSKNQVVLTMTNMDPVDTATYYCARGVPAYSHGGDLWGQGTLVTVSSASTKGPSVFPLAPSSKSTSGGTAALGCLVKDYFPEPVTVSWNSGALTSGVHTFPAVLQSSGLYSLSSVVTVPSSSLGTQTYICNVNHKPSNTKVDKKVEPKSCDKTHTCPPCPAPELLNGPSVFLFPPKPKDTLMISRTPEVTCVVVDVSDEDPEVKFNWYVDGVEVHNAKTKPREEQYNSTYRVVSVLTVLHRDWLNGKEYKCKVSNKALPKPIEKTISKAKGQPREPQVYTLPPSREEMTKNQVSLTCLVKGFYPSDIAVEWESNGQPENNYKTTPPVLDSDGSFFLYSKLTVKKSRWQQGNVFSCSVMHEALHNHYTQKSLSLSP light: DIVMTQSPATLSLSPGERATLSCTSSQSVYHANWLSWFQQKPGQPPKLLIYWASTLAYGVPSRFSGSGSGTDFTLTISSLQPEDAATYYCAGGYGGGRYAFGQGTKVEIKRTVAAPSVFIFPPSDEQLKSGTASVVCLLNNFYPREAKVQWKVDNALQSGNSQESVTEQDSKDSTYSLSSTLTLSKADYEKHKVYACEVTHQGLSSPVTKSFNRGEC",–,–,5 fold

# More lines, now with the values ahead:
binding result [1],binding result [2],KD fold vs SG1 [1],Binder
binds,binds,–,"M103205H795-SG1 E233D/M103202L889-SK1 (antibody, human IgG1, kappa, copies: 2 + 2) heavy: not shown light: DIVMTQSPATLSLSPGERATLSCTSSQSVYHANWLSWFQQKPGQPPKLLIYWASTLAYGVPSRFSGSGSGTDFTLTISSLQPEDAATYYCAGGYGGGRYAFGQGTKVEIKRTVAAPSVFIFPPSDEQLKSGTASVVCLLNNFYPREAKVQWKVDNALQSGNSQESVTEQDSKDSTYSLSSTLTLSKADYEKHKVYACEVTHQGLSSPVTKSFNRGEC"
binds,binds,–,"M103205H795-SG1 G236A/M103202L889-SK1 (antibody, human IgG1, kappa, copies: 2 + 2) heavy: not shown light: DIVMTQSPATLSLSPGERATLSCTSSQSVYHANWLSWFQQKPGQPPKLLIYWASTLAYGVPSRFSGSGSGTDFTLTISSLQPEDAATYYCAGGYGGGRYAFGQGTKVEIKRTVAAPSVFIFPPSDEQLKSGTASVVCLLNNFYPREAKVQWKVDNALQSGNSQESVTEQDSKDSTYSLSSTLTLSKADYEKHKVYACEVTHQGLSSPVTKSFNRGEC"
–,–,8 fold,"MS103205H795-PK2/M103202L889-SK1 (antibody, also called MS1032LO06-PK2; copies: 2 + 2) heavy: QVTLKESGPVLVKPTETLTLTCTVSGIDLSHDDISWVRQAPGKGLEWVGIISYAGSTYYASWAKGRLTISKDTSKNQVVLTMTNMDPVDTATYYCARGVPAYSHGGDLWGQGTLVTVSSASTKGPSVFPLAPSSKSTSGGTAALGCLVKDYFPEPVTVSWNSGALTSGVHTFPAVLQSSGLYSLSSVVTVPSSSLGTQTYICNVNHKPSNTKVDKKVEPKSCDKTHTCPPCPAPELLNGPSVFLFPPKPKDTLMISRTPEVTCVVVDVSEEDPEVKFNWYVDGVEVHNAKTKPREEQYNSTYRVVSVLTVLHQDWLNGKEYKCKVSNKALPKPIEKTISKAKGQPREPQVYTLPPSREEMTKNQVSLTCLVKGFYPSDIAVEWESNGQPENNYKTTPMVLDRDGSFFLYSKLTVKKSRWQQGNVFSCSVMHEALHNHYTQKSLSLSP light: DIVMTQSPATLSLSPGERATLSCTSSQSVYHANWLSWFQQKPGQPPKLLIYWASTLAYGVPSRFSGSGSGTDFTLTISSLQPEDAATYYCAGGYGGGRYAFGQGTKVEIKRTVAAPSVFIFPPSDEQLKSGTASVVCLLNNFYPREAKVQWKVDNALQSGNSQESVTEQDSKDSTYSLSSTLTLSKADYEKHKVYACEVTHQGLSSPVTKSFNRGEC"
